Laboratory results: publication PMC3396432

Molecular target: Cav1(62-178) P132L (UniProt Q03135)
Test: AUC

Kd: < 0.015 µM
stoichiometry N: 2
Substance: Cav1(62-178) P132L (from UniProt Q03135 62-178) (domain or fragment)
